Measurements: patent publication US20160053025A1 (SAMSUNG ELECTRONICS, published 2016)
Substitutions are numbered along the chain they refer to.

What was measured:
Experiment in all cases: ELISA, antibody coated, FLAG-tagged mutant Ang2 RBD detected with anti-FLAG-HRP
[1] = target: T1, Ang2 RBD Y460A, FLAG-tagged (human, UniProt O15123 281-496, limits assumed)
T1 chain: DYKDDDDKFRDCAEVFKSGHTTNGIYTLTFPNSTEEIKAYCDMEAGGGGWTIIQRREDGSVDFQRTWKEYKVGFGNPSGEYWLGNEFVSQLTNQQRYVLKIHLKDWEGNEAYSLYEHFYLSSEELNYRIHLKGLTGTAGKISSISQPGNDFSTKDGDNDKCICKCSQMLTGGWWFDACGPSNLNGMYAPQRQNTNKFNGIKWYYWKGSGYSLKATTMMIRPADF
Procedure: (§1) To verify the epitope (or specific binding site) of the anti-Ang2 antibody prepared in Reference Example 2.3, an ELISA was performed using a recombinant protein where a receptor binding domain (RBD) of Ang2 protein in the form of being tagged with Flag was mutated by artificial means.
(§2) Each well of a 96-well MaxiSorp™ flat-bottom plate (Nunc) was coated with 50 ul (microliter) of 1000 nM antibody. Then, the plate was washed five times with 0.05% (v/v) Tween-20-containing PBS (PBST) and blocked with 1% (v/v) BSA-containing PBS at a room temperature for 2 hours. 250 ng of each mutant Ang2 protein obtained by substituting S417, Q418, P419, N421, 1434, D448, A449, P452, Y460, N467, K468, or F469 residue of Ang2 protein tagged with a FLAG sequence ([…], Sigma) at its N-terminal with alanine was added to each well of the plate, which was then allowed to react at a room temperature for 2 hours.
(§3) Finally, 50 ul of TMB substrates (Cell signaling) was added to each well of the plate to induce color development at a room temperature for 3 min. and the reaction was ceased by the addition of 50 ul of Stop solution (Cell signaling) and then, OD450 values were measured on a plate reader (Molecular Devices). By comparing binding affinities with mutated Ang2 to those of unmutated Ang2, each epitope of Ang2 antibodies was identified. The obtained measurement results of the binding affinities (%) with mutant Ang2 against the binding affinity with the native Ang2 are shown in the following Table 13.

[2] = target: T2, Ang2 RBD N467A, FLAG-tagged (human, UniProt O15123 281-496, limits assumed)
T2 chain: T1 chain with A188Y, N195A
Procedure: as §1, §2, §3

[3] = target: T3, Ang2 RBD S417A, FLAG-tagged (human, UniProt O15123 281-496, limits assumed)
T3 chain: T1 chain with S145A, A188Y
Procedure: as §1, §2, §3

[4] = target: T4, Ang2 RBD P452A, FLAG-tagged (human, UniProt O15123 281-496, limits assumed)
T4 chain: T1 chain with P180A, A188Y
Procedure: as §1, §2, §3

B1: SAIT-ANG2-AB-m10D6 (antibody, V domains shown)
VH: DVQLQESGPDLVKPSQSLSLTCTVTGYSITSDYAWNWIRQFPGNKLEWMGYINYSGNTDYNPSLKSRSSITRDTSKNQFFLQLNSVTTGDTATYYCARGNFEGAMDYWGQGTSVTVSS
VL: SIVMTQTPKFLLVSAGDRVTITCKASQSVSNDVAWYQQKPGQSPKLLIYYASNRYPGVPDRFTGSGYGTDFTFTISTVQAEDLAVYFCQQDYSSPWTFGGGTKLEIK
notes: Mouse monoclonal antibody purified from a hybridoma (KCLRF-BP-00295); it is not applied here; also called mouse antibody 10D6; 10D6 antibody
With B1 the “binding affinity (%) with mutant Ang2 against the binding affinity with the native Ang2” value (“binding affinity (%) with mutant Ang2” for short) [1] was 103%, the “binding affinity (%) with mutant Ang2” value [2] was 107% and the “binding affinity (%) with mutant Ang2” value [3] was 101%. For the same binder, the “binding affinity (%) with mutant Ang2” value [4] was 102%.
